The target in data set [1] is cynomolgus monkey BTLA on cells (cynomolgus monkey). In words: flow cytometry dot plot, cynomolgus monkey lysed whole blood, CD3 (PerCP Cy5.5) against BTLA (APC), 33 nM antibody. On the technique in general: In flow cytometry, cells or beads pass a laser one at a time.
For data set [2], the target named is T1, BTLA-ECD, purified recombinant (Example 19).
T1 sequence (Q7Z6A9 31-157, species assumed, looked up): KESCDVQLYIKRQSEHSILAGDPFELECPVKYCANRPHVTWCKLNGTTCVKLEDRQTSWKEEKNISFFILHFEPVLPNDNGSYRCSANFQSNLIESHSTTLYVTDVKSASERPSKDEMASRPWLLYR

Data set [3] has as its target β-galactosidase enzyme donor (ED)-tagged human BTLA on Jurkat cells (human, UniProt Q7Z6A9 31-289). The data set is described as follows: cell-based or functional assay.
Data set [4] addresses T2, cynomolgus monkey BTLA on cells (cynomolgus monkey, UniProt A0A2K5W7M7 31-289).
T2 construct: whole, on cells; also called 293c18 clone 1G5; BTLA on cynomolgus monkey peripheral blood T and B cells
T2 sequence: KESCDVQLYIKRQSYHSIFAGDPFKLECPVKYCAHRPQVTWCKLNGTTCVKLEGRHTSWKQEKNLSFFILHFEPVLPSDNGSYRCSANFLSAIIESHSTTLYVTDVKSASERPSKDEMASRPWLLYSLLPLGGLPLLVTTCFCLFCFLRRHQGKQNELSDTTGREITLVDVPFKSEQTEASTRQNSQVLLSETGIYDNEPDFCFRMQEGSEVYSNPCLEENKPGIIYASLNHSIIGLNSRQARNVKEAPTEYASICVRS
The data set is described as follows: flow cytometry on cynomolgus monkey whole blood, staining of CD20+ B cells against CD3+ T cells. The procedure: Blood was then aliquoted into wells and incubated with the indicated concentrations of 6G3-AF647 (APE13766.02), or APC-Mouse Anti-Human CD272 (BTLA) reference antibody (clone J168-540; BD Biosciences) for 30 minutes at room temperature, in the dark. Following incubation, red blood cells were lysed for 10 minutes by addition of 2.0 ml diluted BD Pharm Lyse lysing solution (BD Biosciences), samples centrifuged at 200×g for 5 minutes, washed in FACS Buffer [Dulbecco's PBS, no calcium, no magnesium (Gibco/ThermoFisher Scientific), 25 mM HEPES, pH 7.2, 0.1% BSA, 0.1% sodium azide] and fixed in 4% paraformaldehyde (200 μl/sample) for 10 minutes at room temperature. Samples were washed twice in FACS Buffer and analyzed for fluorescence on a NovoCyte Quanteon flow cytometer (ACEA Biosciences, Inc.). Data were analyzed using NovoExpress Software (ACEA Biosciences, Inc.). Mean fluorescence intensity (MFI) values were graphed and fit with nonlinear regression analyses in GraphPad Prism (GraphPad Software, Inc.). MFI values for each anti-BTLA antibody on total CD3⁺ cells are shown in FIG. 5A; MFI values for each anti-BTLA antibody on total […] are shown in FIG. 5B. […] Binding of each anti-BTLA antibody to CD3⁻ cells in FIG. 5C and FIG. 5D (green cells in the bottom quadrants of each panel) reflects the binding to CD20+ B cells. […]

As to “APC-Mouse Anti-Human CD272 (BTLA) reference antibody clone J168-540 (BD Biosciences)”, in data set [1], the % of cells in quadrant Q8-2 (CD3+, BTLA stain positive) amounted to 35.8%; the % of cells in quadrant Q8-4 (CD3-, BTLA stain positive) came out at 28%; the Total BTLA (% of cells stained) stood at 63.9%.

B1: Proteinase 3 (PR3), purified recombinant (protein)
chain: IVGGHEAQPHSRPYMASLQMRGNPGSHFCGGTLIHPSFVLTAAHCLRDIPQRLVNVVLGAHNVRTQEPTQQHFSVAQVFLNNYDAENKLNDVLLIQLSSPANLSASVATVQLPQQDQPVPHGTQCLAMGWGRVGAHDPPAQVLQELNVTVVTFFCRPHNICTFVPRRKAGICFGDSGGPLICDGIIQGIDSFVIWGCATRLFPDFFTRVALYVDWIRSTLR
For the molecule B1, the “proteolytic cleavage after co-incubation for up to 60 minutes (gel lanes)” value in data set [2] was “soluble BLTA-ECD was cleaved into multiple smaller fragments”.

B2: 6G3 IgG4 anti-BTLA antibody (antibody, V domains shown)
VH: QVQLVQSGAEVKKPGSSVKVSCKASGYVFSTSWMNWVRQAPGQGLEWMGRIYPGDADTNYVGKFKGRVTITADKSTTTAYMELSSLRSEDTAVYFCAKSGTFNFGNYRWYFDVWGKGTTVTVSS
VL: AIQLTQSPSSLSASVGDRVTITCRVSENIYSHLAWYQQKPGKAPKLLIYAATNLALGVPSRFSGSGSGTDYTLTISSLQPEDFATYYCQLFWGPPLTFGGGTKVEIKR
notes: Humanized, IgG4; also called APE10840; APE10840.03
In the case of B2, in data set [3], the “SHP2 recruitment PathHunter Jurkat BTLA signaling assay with U-2 OS hFcγRIa cells, EC50” value came out at 0.0093 µg/mL; the “SHP2 recruitment PathHunter Jurkat BTLA signaling assay, soluble antibody, EC50” value stood at 0.125 µg/mL; the “fold change of agonist potency with against without cell-associated FcγRIa” value was about 13 fold. The “MFI on B cells relative to MFI on T cells” value in data set [4] is about 9 fold.

The record behind these values is patent publication US20250282872A1 (ANAPTYSBIO, published 2025).
